{"source": "a protein production outcome set (Wang et al. 2014)"}
{"test": "label from the status in PepcDB records"}
{"sequence": "MRNTNLQAMIESAILAAFALVIDILPLSIKLPTGGSISFAMIPIFIIAYRWGFKSAFLGGLVWGLLQIVVGDAYILTPVQAFIEYFIAFAFIGFAGLFYRPIQKALLTSNENNLEQSSLGSRKDKPSSKQNEGKKVLAYIILATFIGSFARYFCHFIAGIIFWGQYAPKGQSAVLYSLIVNGSTMIGSYILCTVLLIFLFLTSPRLFKSISAYQLNANKKGA", "protein production": "failed"}
{"sequence": "MRPAVIAATGLYTPPDSVSNAELVEAFNTYVANFNAANKARIEAGEIEPLQPSSSEFIEKASGIKSRYVVAKPGIVDPDVMRPIIPERSNDELSILAEMAVTAAEQAIERWGKPRERIGAVLCACSNMQRAYPAMAIEVQNALGLGGFAFDMNVACSSATFGLKTAADFVGGGSVDAVLMVNPEICSGHLNFRDRDSHFIFGDVATAAIVERADDAQGGWS", "protein production": "failed"}
{"sequence": "MRPESMTDGVPGSDSPAAAAAAASVTTSLHDLQVLVERGTLSGPEKQQADHLVTSLKRELVLRRVGDHLAERTFHELCVRLAVMERDWAAMERHIQQLMPLYELDRQAGIQSPHRDLLVGLNLMRLLAQNRLAEYHMELELLPTTEPQQNPYVLFPFQVEQALTEGSYQKILHIEAGAEWLPFIELLRETTIQEMVTSWAEAYAHVTLEELASMAALPVEQVPALLARVLDCTQYVVQNETVHFIASDHIREAPSQYLLAKEAVSRTMEYIRGLERIV", "protein production": "not failed"}
{"sequence": "MRPHRAFSPGLTGVLPLRETRHLVEVLRARVGDRFTVFDGEREALAEVVDLGPPLRYRVLEERRPEREVGVEVVLYVALLKGDKLAEVVRAATELGATRIQPLVTRHSVPKEMGEGKLRRLRAVALEAAKQSGRVVVPEVLPPIPLKAVPQVAQGLVAHVGATARVREVLDPEKPLALAVGPEGGFAEEEVALLEARGFTPVSLGRRILRAETAALALLALCTAGEGR", "protein production": "not failed"}
{"sequence": "MRPRLGLLDASVLSFAVLPTDLDFNRHMTNARYLSLMDLGRLDLILRSGMWRLVLRQSLQPVIGGALVRFRHALRPFQPFRLTTRVLAWDARWLFIEHRVETLDGKPACTAVVRAAFVASTGMLPTADLLTRLGYGGAAPDVPAWIAPWLQADLACQPLEHHHHHH", "protein production": "failed"}
{"sequence": "MRPVPPPPDRSGRCFASPRRSDLSPQAGRGEEPLAAPIEPSLPPSRPIPGRPAPPGTFAMDWTWYLFRFDGRINRALLWQALLIVALLAGLLEIVGQVIGILGGTRSTLKLAIDLDFDFGLDDLFKLVDPRASRSLASADRATSILKASGMALFFWIYLATTIKRLHDRDRSGWWIVPFFVVPGLFSQFADLLPNSNWMLPFSLAVSILWLWGLVEMFCRPGTSGHNRFGPDPLADFEDSSAASPAQGWDQSREIEIVPPNASPPGGMHVKRGA", "protein production": "failed"}
{"sequence": "MRQDAEVIMKLTDADNAADGIFFPALEQNMMGAVLINENDEVMFFNPAAEKLWGYKREEVIGNNIDMLIPRDLRPAHPEYIRHNREGGKARVEGMSRELQLEKKDGSKIWTRFALSKVSAEGKVYYLALVRDASVEMAQKEQTRQLIIAVDHLDRPVIVLDPERHIVQCNRAFTEMFGYCISEASGMQPDTLLNIPEFPADNRIRLQQLLWKTARDQDEFLLLTRTGEKIWIKASISPVYDVLAHLQNLVMTFSDITEERQIRQLEGNILAAMCSSPPFHEMGEIICRNIESVLNESHVSLFALRNGMPIHWASSSHGAEIQNAQSWSATIRQRDGAPAGILQIKTSSGAETSAFIERVADISQHMAALALEQEKSRQHIEQLIQFDPMTGLPNRNNLHNYLDDLVDKAVSPVVYLIGVDHIQDVIDSLGYAWADQALLEVVNRFREKLKPDQYLCRIEGTQFVLVSLENDVSNITQIADELRNVVSKPIMIDDKPFPLTLSIGISYDLGKNRDYLLSTAHNAMDYIRKNGGNGWQFFSPAMNEMVKERLVLGAALKEAISNNQLKLVYQPQIFAETGELYGIEALARWHDPLHGHVPPSRFIPLAEEIGEIENIGRWVIAEACRQLAEWRSQNIHIPALSVNLSALHFRSNQLPNQVSDAMHAWGIDGHQLTVEITESMMMEHDTEIFKRIQILRDMGVGLSVDDFGTGFSGLSRLVSLPVTEIKIDKSFVDRCLTEKRILALLEAITSIGQSLNLTVVAEGVETKEQFEMLRKIHCRVIQGYFFSRPLPAEEIPGWMSSVLPLKI", "protein production": "failed"}
{"sequence": "MRQIGNRRVAPLAILAAVLMGGPTNASTGEFKVAYLYNLSDFTGTIPYSLAKIALDATARETYVISGETVKVFNNSGMEVYRFTNTMESGIVYDAAIDEQGRILVLAYNNGTPSLLLCNYRAEPIKPIEFKGLPEKLAAFKPNRLMLRDGKICLVSLGSMMVVMLDPEGNYVKHIDLAEASSVTEEDRLNTGIGAVAFDSDGSVLFTSPVTGKVFRISANGTVESFGKRGSAPGKFGVPTGIAVDGLGNYYISDKLRCAILVFDRQFKFIYEFGGRGDAPGSLVGPDDLAIDAEGKLYVGQLGNRGVSVFKVTHD", "protein production": "failed"}
{"sequence": "MRQSTLHTRLSTGPGGSMRSSIEIFNIRTRKMRVVWQTPELFEAPNWSPDGKYLLLNSEGLLYRLSLAGDPSPEKVDTGFATICNNDHGISPDGALYAISDKVEFGKSAIYLLPSTGGTPRLMTKNLPSYWHGWSPDGKSFTYCGIRDQVFDIYSMDIDSGVETRLTHGEGRNDGPDYSPDGRWIYFNSSRTGQMQIWRVRVDGSSVERITDSAYGDWFPHPSPSGDKVVFVSYDADVFDHPRDLDVRVQLMDMDGGNVETLFDLFGGQGTMNSPNWSPDGDEFAYVRYFPVE", "protein production": "not failed"}
{"sequence": "MRQTFIARKISFISLIHFRDEYMSPQNNHLQRPPAAVLYADELAKLKQNDNAPCPPGWQLSLPAARAFILGDEAQNISRKVVISPSAVERMLVTLATGRGLMLVGEPGTAKSLLSELLATAISGDAGLTIQGGASTTEDQIKYGWNYALLINHGPSTEALVPAPLYQGMRDGKIVRFEEITRTPLEVQDCLLGMLSDRVMTGPELTGEASQLYAREGFNIIATANTRDRGVNEMSAALKRRFDFETVFPIMDFAQELELVASASARLLAHSGIPHKVPDAVLELLVRTFRDLRANGEKKTSMDTLTAIMSTAEAVNVAHAVGVRAWFLANRAGEPADLVECIAGTIVKDNEEDRARLRRYFEQRVATHKEAHWQAYYQARHRLP", "protein production": "failed"}
{"sequence": "MRRENTKSNIDFKSIFDSLPDLYLLLDRDFNIVGVSDAYLQATMVSRKQILGKNVFDAFPDNPNDPKATGAKNLYASLLRVLKNKSADTMAIQKYDIQRPADRGGGFEERYWSPINTPVLGADQEVEYIIHRVEDVT", "protein production": "failed"}
{"sequence": "MRRGRGKGKKQNASAREDRGSGDEEKIPAYRRRGRPQKPMKDDFEEEEEEDDEEMVEKMEVEDEDEEIDDGSVTSKDLKERKRKMSNGSNTDLTEEENGLGSKPNTDDSTRSTSIGFRQNGSRRKSKPRRAAEAVVECNGV", "protein production": "failed"}
{"sequence": "MRRHRLSGQITLSMSVVVAIAVLMVFVGTFIFYSIYMTWFPPPPGPPPLLPEAPDFILIAIFLLLGLAIAIHAALRLTRRILAPLNSLAEGARKIAAGDLTARAVAGDRSLGETAQLVDDFNAMARRLEDAAESMTSWNAAIAHELRTPLTILRGRLQGLTDGVFEPSDELFRSLLVQVENLSRLVDDLRVVTLSDSQRLDMRVEPTDLANEVAQAVDAMRPALEGAGFSIRMTTEPVTLPCDGPRIRQALLALLENARRYATPGMIVIRMTLETFEVAIAVEDEGPGLSAEFAARAFDAFVRAEPSRSRQFGGSGLGLSVVRAIAEAHGGHARYSTSEKGGSVFEIVFPIDGASADSNAASCAPKV", "protein production": "failed"}
{"sequence": "MRRKERRESMKKHRQLLALFICLVMSVSLLTGYSETKAATEEPTQSAEQDATQETAETREITDMAGRKVTVPTAENIESVFSAGPVAAIFLYMVVPDKLLGWNYELNDVEKSIILDKYQDLPNFGMGDAVNYEAVIAANPTIAINSGKINDAMVSDCDALSESLGIPVVAVDNELNNSAEAFRFMGELLGVEDHAEELAQYAEQVFTDINVLSDIPEEKKVSVYFGNGEDSLETAPRGSQHAQILDAINAVNVADLELGDGSRVQISAEQLLAWDPDVIVVNGEPKADKSGSSAAEDILSNPDYASLKAVQDQKVYGTPNAPFSWVDRPAGPNRLIGMRWFSALIYPEYIKCDINEEIHKFFDLFYHVDLSDEQLENVLKGTL", "protein production": "failed"}
{"sequence": "MRRNRVDVITLGCSKNLVDSEVLMRQFLSNGYTVHHDPASVCGEIVVVNTCGFIGDAQEESVNTILEMVEAKKAGRIGSLYVMGCLSERFREDLKKEIPEVDAYYGKFDWKQLISHLGKSYYAEAENRRKLTTPRHYAYLKISEGCDRSCSYCAIPIITGRHRSRPMEDLVEEVRMLVKHGTREFQLIAQDLTFYGLDLYGANRLAELTARLSDIKGVEWLRLHYAYPAQFPLDLLPVMRERPNVCKYLDMALQHISDPMLGRMRRRITKAETYELIERIRTEVPGIHLRTTLMTGHPGETERDFEELLQFVRDIRFERLGAFTYSHESGTYCDKNYQDDIPESVKQERLGELMAVQERISAAHNEAKIGSRLHVVIDRAEDGFYVGRTEYDSPEVDPEVLIPFVSGQELNPGRFYMAEVTGAEPFDLYARIVDLEHHHHHH", "protein production": "failed"}
{"sequence": "MRRSPCNQGLSNLMQLFTYLAPAGQALLPYLSEISIALVACTLVMLGGEINAFLRRALRNQHFLVRTLAFIFINAFGYGLIIVKASPYVARTLAQLESGMMLTLIVSCFVVIGLWAQRNHQI", "protein production": "failed"}
{"sequence": "MRRSPWRIAYTTKPADTAVPARHPSMAHIFFAASIQRHIATPEREVDARTLGEALEAVFAAQPRLRGYILDDQGALRKHLAVFVDGQPVRDRQHLSDALGENSRVYVIQALTGG", "protein production": "failed"}
{"sequence": "MRRSRSSAAAKLRGQKRSGASGASAAPAASAAAALAPSATRTRRSASQAGSKSQAVEKPPSEKPRLRRSSPRAQEEGPGEPPPPELALLPPPPPPPPTPATPTSSASNLDLGEQRERWETFQKRQKLTSEGAAKLLLDTFEYQGLVKHTGGCHCGAVRFEVWASADLHIFDCNCSICKKKQNRHFIVPASRFKLLKGAEHITTYTFNTHKAQHTFCKRCGVQSFYTPRSNPGGFGIAPHCLDEGTVRSMVTEEFNGSDWEKAMKEHKTIKNMSKE", "protein production": "failed"}
{"sequence": "MRRSSSKKKSGQSTESVTTDLFRSASSKASNKEMDRIDHLFNQYANKSSSLIDPEGIEELCSNLEVSHTDIRILMLAWKMKAEKQGYFTHISFPDMGDYNPELAWPLILDNFVEWIQEKQA", "protein production": "failed"}
{"sequence": "MRSFSKFAQIVFFGLLIVSAIFVVSCGGSGNAVLNKDKPLVFFNRQPSDPTTGEIDMTSMNWNDKTYYVGFDAAGGGAVQGKLITDFLVSAETSLDRNGDGIIGYVLCIGDVGHNDSKARTEGIRKALGTWAGSTDPGKTKQGSITIAGKTFDVVELEGKAMTGTDGSTWNANAATEAMGGWATKFADQIDMVVSNNDGMAMGCLQASNYPAGVPIFGYDANADAIEAVGKGLLTGTVSQNVDAQATATLQVLRNLLDGLTGTDVYTKGITAEDSYGNKISAPVQYWADVKAVMAANSGVTKANYENYLGGTRDAGIKQTNAPKKKVLLTIYNSGDNFLSSSYLPALKYYAPLLNIELTIVQGDGQNESSCLDKFTNLNNFDAFAVNMVKTNSGSNYTDKLKY", "protein production": "failed"}
{"sequence": "MRSGFRRCCPAIQRFKKVQRILLIVLFLNLAVAFAKIIYGTLTSTLSMTADGYHSLFDGVSNIVGLVGSFIAARPPDKEHPYGHQKYETIASIFIALLLLYVGVEIFRHALDRFLIRSVPEVTAISFLVIIGTMCINYLVTRYEYRQGLALRSQVLIADSLHTKSDIYVSLSVILSLAAVKLGFPLLDPLIAVLISFLIFRAGFRIMKESSKVLLDMSRLEEDEICNLVLGVEGVLGCHKIRTRGGMGDIRIDMHVLVQADLTLEEAHLISHRVSKMLKAEYNDVTDVVVHLEPALPQGSYSKKTT", "protein production": "failed"}
{"sequence": "MRSHNLFGDMCEAFMTKYVMTELRPKTQTLYKSTFNKYVTPYKNIDIERYKYTDWIAYFDWVKKESSSANAGSVLKRFKAVANWAKARGQIKHSHLIDIPIKLEHHHHHH", "protein production": "failed"}
